Here are results for 3 molecules from patent US20250339531A1, “DUX4 POLYPEPTIDES AND NUCLEIC ACIDS FOR TREATING INFLAMMATORY AND AUTOIMMUNE CONDITIONS” (Fred Hutchinson Cancer Center, priority 2021, published 2025).

This experiment has as its system proteins that co-immunoprecipitated with DUX4-CTD constructs expressed in MB135 myoblasts. The experiment can be described thus: LC-MS of proteins co-immunoprecipitated with DUX4-CTD (Table 1) and western validation. The format is binding, human. Also on record: key to 4. mL1dL2 + Dox + IFNG / 4. + IFNG mix / 4. longCTD + Dox + IFNG / 3. + IFNg + Dox longCTD / 3. + Dox longCTD / 3. + IFNG longCTD: peptide-spectrum matches (PSMs) per protein. Particulars: kind of count not given; for 4. + IFNG mix: LC-MS value per protein co-immunoprecipitated from MB135 myoblasts, + IFNG mix sample (no Dox); for 4. mL1dL2 + Dox + IFNG: LC-MS value per protein co-immunoprecipitated with DUX4-CTD construct mL1dL2 in MB135 myoblasts. An excerpt: As an unbiased method to identify proteins that interact with the C-terminal region of DUX4, liquid chromatography mass spectroscopy (LC-MS) was used to identify proteins that co-immunoprecipitated with DUX4-CTD constructs expressed in MB135 myoblasts. In the first experiment, MB135iDUX4-CTD cells were used, either untreated, treated with doxycycline alone, or with both doxycycline and IFNG. In the second experiment, MB135iDUX4-CTD and MB135iDUX4mL1dL2 cells were used, both treated with doxycycline and IFNG, compared to these two cell lines untreated and combined as a control. Proteins with a minimum of 2 peptide spectrum matches (PSMs) in at least one sample that were identified in both experiments were assigned to one of ten categories (see Methods) to separate candidate interactors from other categories that might be co-purified because of obligate interactions (e.g., proteasome or ribosome) or might be less likely to be physiologically relevant (e.g., cytoskeletal proteins). Candidate interactors were then ranked based on the total PSMs for that protein across all samples.
Centrifugation at 2500 rcf at 4° C. for 5 min pelleted the nuclei, supernatant was discarded, and nuclei resuspended in 1 mL IP buffer pH 7.4 (25 mM Tris-HCl pH 7.5, 175 mM NaCl, 1 mM EDTA, 0.2% NP-40, 5% glycerol) and incubated for 1 hour at 4° C. with rotation then spun at 21000 rcf for 10 minutes at 4° C. to pellet insoluble debris. Protein concentration was determined using the Pierce BCA Protein Assay Kit (ThermoFisher, 23225). An equivalent amount of protein per sample was pre-cleared with Dynabeads Protein G (Invitrogen) bound to mouse IgG (Abcam #131368) for 1 hour at 4° C. with rotation. FLAG-tagged constructs were then immunoprecipitated with Dynabeads Protein G beads coupled to mouse anti-FLAG M2 mAb (Sigma F3165) for 3 hours at 4° C. with rotation. Beads were washed 3× with 1 mL IP buffer and eluted by adding 2× NuPage LDS Sample Buffer (Thermo Fisher, diluted from 4× with PBS) to the beads and heating for 10 minutes at 70° C.
For LC-MS, anti-FLAG immunoprecipitation was performed with beads cross-linked to the anti-FLAG antibody and the proteins competitively eluted with FLAG peptide. Eluted protein samples were electrophoresed into a NuPage 4-12% Bis-Tris gel, excised, and processed by the Fred Hutchinson Cancer Research Center Proteomics Core. Samples were reduced, alkylated, digested with trypsin, desalted, and run on the Orbitrap Eclipse Tribid Mass Spectrometer (Thermo Fisher). Proteomics data were analyzed using Proteome Discoverer 2.4 against a Uniprot human database that included common contaminants using Sequest HT and Percolator for scoring. […] Proteins that were identified in at least one sample from both independent experiments with at least 2 PSMs in one sample were assigned to one of ten categories: 1, candidates; 2, cytoskeletal associated; 3, cytoskeletal; 4, ribosome/translation associated; 5, proteasome associated; 6, membrane or extracellular; ER, golgi, or vesicle associated; 8, lipid metabolism; 9, chaperones; 10, nuclear import or nuclear membrane associated. The proteins in category 1 were further investigated for interactions with DUX4.

B1: SERPINB3 (protein)
chain: MNSLSEANTKFMFDLFQQFRKSKENNIFYSPISITSALGMVLLGAKDNTAQQIKKVLHFDQVTENTTGKAATYHVDRSGNVHHQFQKLLTEFNKSTDAYELKIANKLFGEKTYLFLQEYLDAIKKFYQTSVESVDFANAPEESRKKINSWVESQTNEKIKNLIPEGNIGSNTTLVLVNAIYFKGQWEKKFNKEDTKEEKFWPNKNTYKSIQMMRQYTSFHFASLEDVQAKVLEIPYKGKDLSMIVLLPNEIDGLQKLEEKLTAEKLMEWTSLQNMRETRVDLHLPRFKVEESYDLKDTLRTMGMVDIFNGDADLSGMTGSRGLVLSGVLHKAFVEVTEEGAEAAAATAVVGFGSSPTSTNEEFHCNHPFLFFIRQNKTNSILFYGRFSSP
As to B1, the “4. + IFNG mix” value turned out to be 2.

B2: IGF2BP2 (protein)
chain: MMNKLYIGNLSPAVTADDLRQLFGDRKLPLAGQVLLKSGYAFVDYPDQNWAIRAIETLSGKVELHGKIMEVDYSVSKKLRSRKIQIRNIPPHLQWEVLDGLLAQYGTVENVEQVFAFSLVNTDTETAVVNVTYATREEAKIAMEKLSGHQFENYSFKISYIPDEEVSSPSPPQRAQRGDHSSREQGHAPGGTSQARQIDFPLRILVPTQFVGAIIGKEGLTIKNITKQTQSRVDIHRKENSGAAEKPVTIHATPEGTSEACRMILEIMQKEADETKLAEEIPLKILAHNGLVGRLIGKEGRNLKKIEHETGTKITISSLQDLSIYNPERTITVKGTVEACASAEIEIMKKLREAFENDMLAVNQQANLIPGLNLSALGIFSTGLSVLSPPAGPRGAPPAAPYHPFTTHSGYFSSLYPHHQFGPFPHHHSYPEQEIVNLFIPTQAVGAIIGKKGAHIKQLARFAGASIKIAPAEGPDVSERMVIITGPPEAQFKAQGRIFGKLKEENFFNPKEEVKLEAHIRVPSSTAGRVIGKGGKTVNELQNLTSAEVIVPRDQTPDENEEVIVRIIGHFFASQTAQRKIREIVQQVKQQEQKYPQGVASQRSK
On to B2, for which the “4. mL1dL2 + Dox + IFNG” value was 1.

B3: ENDOD1 (protein)
chain: RLVGEEEAGFGECDKFFYAGTPPAGLAADSHVKICQRAEGAERFATLYSTRDRIPVYSAFRAPRPAPGGAEQRWLVEPQIDDPNSNLEEAINEAEAITSVNSLGSKQALNTDYLDSDYQRGQLYPFSLSSDVQVATFTLTNSAPMTQSFQERWYVNLHSLMDRALTPQCGSGEDLYILTGTVPSDYRVKDKVAVPEFVWLAACCAVPGGGWAMGFVKHTRDSDIIEDVMVKDLQKLLPFNPQLFQNNCGETEQDTEKMKKILEVVNQIQDEERMVQSQKSSSPLSSTRSKRSTLLPPEASEGSSSFLGKLMGFIATPFIKLFQLIYYLVVAILKNIVYFLWCVTKQVINGIESCLYRLGSATISYFMAIGEELVSIPWKVLKVVAKVIRALLRILCCLLKAICRVLSIPVRVLVDVATFPVYTMGAIPIVCKDIALGLGGTVSLLFDTAFGTLGGLFQVVFSVCKRIGYKVTFDNSGEL
For the molecule B3, the “4. + IFNG mix” value was 1 and the “4. mL1dL2 + Dox + IFNG” value is given as 1.
